Patent US20200181601A1 (INSTITUT PASTEUR, published 2020)

T1: PulD-N, soluble monomeric fragment corresponding to the N-terminal region of PulD from Klebsiella oxytoca (Klebsiella oxytoca, UniProt P15644 28-264)
T1 sequence: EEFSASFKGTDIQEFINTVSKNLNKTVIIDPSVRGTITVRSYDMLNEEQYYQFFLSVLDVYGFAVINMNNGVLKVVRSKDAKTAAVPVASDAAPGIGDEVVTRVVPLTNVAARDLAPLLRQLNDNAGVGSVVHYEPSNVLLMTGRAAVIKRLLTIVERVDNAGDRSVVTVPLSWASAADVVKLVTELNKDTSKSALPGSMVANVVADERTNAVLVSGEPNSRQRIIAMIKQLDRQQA

T2: full-length PulD, monomeric (Klebsiella oxytoca, UniProt P15644 28-660)
T2 sequence: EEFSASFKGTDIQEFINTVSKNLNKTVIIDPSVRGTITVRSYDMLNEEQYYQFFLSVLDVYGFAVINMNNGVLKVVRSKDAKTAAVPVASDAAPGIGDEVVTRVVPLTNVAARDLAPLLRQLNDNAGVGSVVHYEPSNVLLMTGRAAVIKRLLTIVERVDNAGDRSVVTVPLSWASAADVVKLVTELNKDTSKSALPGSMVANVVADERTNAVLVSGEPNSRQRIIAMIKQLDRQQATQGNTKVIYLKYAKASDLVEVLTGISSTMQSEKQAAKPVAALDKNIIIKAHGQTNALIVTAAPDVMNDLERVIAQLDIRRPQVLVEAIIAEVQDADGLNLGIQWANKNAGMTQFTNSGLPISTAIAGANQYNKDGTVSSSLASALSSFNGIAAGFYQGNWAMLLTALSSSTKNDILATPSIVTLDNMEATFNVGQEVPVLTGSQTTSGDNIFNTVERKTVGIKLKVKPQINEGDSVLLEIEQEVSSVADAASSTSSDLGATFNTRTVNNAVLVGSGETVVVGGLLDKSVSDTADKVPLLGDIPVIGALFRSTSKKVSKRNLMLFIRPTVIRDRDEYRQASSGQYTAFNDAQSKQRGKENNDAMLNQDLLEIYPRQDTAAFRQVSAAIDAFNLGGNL


Columns and labels:
[1] = biological target: T1, PulD-N, soluble monomeric fragment …
[2] = biological target: T2, full-length PulD, monomeric; test: cell-based or functional assay
[3] = biological target: T3, PulD-CS, PulD variant lacking the N-domain (Klebsiella oxytoca, UniProt P15644 28-660); test: far-Western immunoblot
T3 construct: domain: PulD variant lacking the N-domain

[4] = biological target: T1, PulD-N, soluble monomeric fragment …; test: SPR, immobilized biotinylated PulD-N

| Binder | ratio signal/background [1] | inhibition of pullulanase secretion, strain PAP5198 pCHAP231, IPTG induced [2] [%] | binding result [3] | binding result [4] |
| --- | --- | --- | --- | --- |
| Sac7*6-PhoA chimera (binder 6 fused to the N-terminus of E. coli alkaline phosphatase) (designed binder, also called clone 6-alkalin phosphatase fusion; Sac7*-PhoA) RTPEMPVDGTGSVKVKFVLGGEEKEVDTSKIRHVYRYGKHVTFSYDDNGKLGLGLVKEKDAPKELLDMLARAEREKKLRAQPGVLENRAAQGDITAPGGARRLTGDQTAALRDSLSDKPAKNIILLIGDGMGDSEITAARNYAEGAGGFFKGIDALPLTGQYTHYALNKKTGKPDYVTDSAASATAWSTGVKTYNGALGVDIHEKDHPTILEMAKAAGLATGNVSTAELQGATPAALVAHVTSRKCYGPSATSEKCPGNALEKGGKGSITEQLLNARADVTLGGGAKTFAETATAGEWQGKTLREQAQARGYQLVSDAASLNSVTEANQQKPLLGLFADGNMPVRWLGPKATYHGNIDKPAVTCTPNPQRNDSVPTLAQMTDKAIELLSKNEKGFFLQVEGASIDKQGHAANPCGQIGETVDLDEAVQRALEFAKKEGNTLVIVTADHAHASQIVAPDTKAPGLTQALNTKDGAVMVMSYGNSEEDSQEHTGSQLRIAAYGPHAANVVGLTDQTDLFYTMKAALGLK | > 10 | > 90 | no binding | – |
| Sac7*33-PhoA chimera (binder 33 fused to the N-terminus of E. coli alkaline phosphatase) (designed binder) RTPEMPVDGTGSVKVKFTWYGEEKEVDTSKIMSVCRWGKRVAFSYDDNGKIDYGLVDEKDAPKELLDMLARAEREKKLRAQPGVLENRAAQGDITAPGGARRLTGDQTAALRDSLSDKPAKNIILLIGDGMGDSEITAARNYAEGAGGFFKGIDALPLTGQYTHYALNKKTGKPDYVTDSAASATAWSTGVKTYNGALGVDIHEKDHPTILEMAKAAGLATGNVSTAELQGATPAALVAHVTSRKCYGPSATSEKCPGNALEKGGKGSITEQLLNARADVTLGGGAKTFAETATAGEWQGKTLREQAQARGYQLVSDAASLNSVTEANQQKPLLGLFADGNMPVRWLGPKATYHGNIDKPAVTCTPNPQRNDSVPTLAQMTDKAIELLSKNEKGFFLQVEGASIDKQGHAANPCGQIGETVDLDEAVQRALEFAKKEGNTLVIVTADHAHASQIVAPDTKAPGLTQALNTKDGAVMVMSYGNSEEDSQEHTGSQLRIAAYGPHAANVVGLTDQTDLFYTMKAALGLK | > 10 | > 90 | – | – |
| Sac7*40-PhoA chimera (binder 40 fused to the N-terminus of E. coli alkaline phosphatase) (designed binder, also called Sac7*-PhoA) RTPEMPVDGTGSVKVKFGEHGEEKEVDTSKIMSVVRFGKWVCFRYDDNGKAGYGAVLEKDAPKELLDMLARAEREKKLRAQPGVLENRAAQGDITAPGGARRLTGDQTAALRDSLSDKPAKNIILLIGDGMGDSEITAARNYAEGAGGFFKGIDALPLTGQYTHYALNKKTGKPDYVTDSAASATAWSTGVKTYNGALGVDIHEKDHPTILEMAKAAGLATGNVSTAELQGATPAALVAHVTSRKCYGPSATSEKCPGNALEKGGKGSITEQLLNARADVTLGGGAKTFAETATAGEWQGKTLREQAQARGYQLVSDAASLNSVTEANQQKPLLGLFADGNMPVRWLGPKATYHGNIDKPAVTCTPNPQRNDSVPTLAQMTDKAIELLSKNEKGFFLQVEGASIDKQGHAANPCGQIGETVDLDEAVQRALEFAKKEGNTLVIVTADHAHASQIVAPDTKAPGLTQALNTKDGAVMVMSYGNSEEDSQEHTGSQLRIAAYGPHAANVVGLTDQTDLFYTMKAALGLK | > 10 | > 90 | no binding | – |
| wild type Sac7d (recombinant) (other, also called Sac7d wt; wt Sac7d) VKVKFKYKGEEKEVDTSKIKKVWRVGKMVSFTYDDNGKTGRGAVSEKDAPKELLDMLARAEREKK | – | – | – | no binding |
